“And” between values parts separate entries of the source, which are not always exact repeats. Identical values can stand only once.
Columns and labels:
[1] = previously found; cited from earlier work
[2] = pressure dependence of emission, ref [23]; cited from earlier work
[3] = High-pressure REES measurements; type: physicochemical
Excerpt: The CSM value is rather larger than reported for the denaturation study above (FIGS. 3A and 3B) and this is due to a different spectral window used to calculate the CSM for the pressure studies. This was necessary due to the optical setup of the pressure cell. […] Fitting the REES data to Eq 4 gives the pressure dependence of A, shown in FIG. 4D as the change in the fraction of A across the pressure range. […] The pressure dependence data can be adequately fit to a simple, phenomenological model that implies a single transition between two states with changing hydrostatic pressure as used previously:
Where Rp=83.13 cm3 mol^−1 bar K^−1 when the pressure, p, is measured in bar, K0 is the equilibrium constant for the change in the relative population of the ith conformational state represented by the magnitude of A from Eq 4, extrapolated to 0 bar and ΔVA is the apparent difference in the volume associated with this equilibrium transition.
The difference in sign is simply attributable to relative change in direction of the specific to signal. What is important is that the magnitude of ΔV is much larger for the REES effect compared to W6 emission. Indeed, this magnitude of pressure dependence is more consistent with global metrics of NEMO conformational change previously measured using the pressure dependence of 8-anilino naphthalene sulfonate (ANS) emission. The REES signal may therefore be reflective of the broader equilibrium of NEMO conformational states at sites distal to W6. […] The key finding from the pressure data in the present context is that the REES effect itself is pressure-dependent with the magnitude of A increasing with pressure.
An ISS high-pressure cell (ISS, Champaign, UL, USA), fitted with a custom fiber optic mounting to the fluorimeter and connected to a circulating water bath for temperature regulation was used to record all high-pressure measurements.
Where fi is the measured fluorescence intensity and λem is the emission wavelength. The importance of using a consistent wavelength range when reporting CSM data is stressed, as the magnitude will be dependent on the wavelength range chosen.

[4] = REES of NEMO W6 Trp emission: native, denatured, crowded; type: physicochemical; conditions: for R0: y-intercept of Eq 2 fit
Description: Typically the magnitude of the steady-state REES phenomenon is reported as the simple difference in CSM or ΔλEm^max. From FIG. 1, it is observed that a significant red shift in the emission spectra, with an increase in CSM of 17.7 nm and an increase in ΔλEm^max of 15 nm from λex 292-310 nm. Essentially the data are treated by the linear function: CSM=Rλex+CSM0 Eq 1.
Where R is the REES magnitude expressed as the change in CSM per nm of the excitation wavelength, λex.
The REES data in FIG. 2 can be best represented by a Gaussian probability distribution of the form:
Where A is the area, w is the full width at half-maximal (fwhm), m is the mid-point and R0 is the y-intercept and m=λREES^max, where λREES^max is the excitation wavelength that gives the largest change in the emission peak wavelength. The data in FIG. 2 are fit to Eq 2 and illustrate the low energy excitation at the red edge of the protein absorption spectrum. The fit of Eq 2 to the experimental data is excellent and captures the expected relationship described above.
In this case, the solvent relaxation will be very rapid and no REES effect observed, effectively because there is one discrete solvation state (fully solvated). NEMO is incubated in 6M guanidine to denature the protein and the corresponding change in the center of spectral mass (CSM) versus λex is shown in FIG. 3. The use of CSM is favoured instead of the magnitude of ΔλEm^max as this metric gives a more robust REES signal and the magnitude of may be highly error prone. However the results using ΔλEm^max are essentially the same. A decrease and red-shift in Trp emission is typically grossly correlated with denaturation of proteins. […] Note that this is not the REES effect but reflective of the solvent exposure of NEMO W6 on denaturation. […] Fitting to Eq 2 also gives a large decrease in the REES effect, A=0.37±0.4. The relative change in the REES effect is similar using either approach and this indicates strongly that a fitting approach using Eq 2 is robust.
Macromolecular crowding is a key feature of the intracellular milieu arising from the very high concentrations of other species in the cytosol. Crowding reduces the available solvent for other molecules in solution through the excluded volume effect, which effectively increase the concentration of, for example, protein and restricts the accessible conformational states through hard-core repulsions between the crowding agent and the protein. Macromolecular crowding can alter protein conformation, typically inducing folding and stabilization. Crowding therefore potentially provides a means to explore the contrasting physical effect of denaturation on the REES effect, where the protein is more folded/stabilized. A protein has been used as the crowding agent, Sbi (reported above), instead of a synthetic crowding agent since protein is much more consistent with the intracellular environment. […] Incubating NEMO with a high concentration of Sbi (20 mg/ml) gives a dramatic change to the both the absolute Trp emission and also the REES effect as shown in FIG. 3. […] Intriguingly, the REES effect is much larger in the crowded environment giving a relative increase in A of 2.24±0.51. […] This is consistent with the putative molecular model of NEMO activity that is based on allosterically regulated NEMO conformational change. Below, the potential mechanistic role of an increased number of available conformational states with respect to ligand interactions is described.
Full length human NEMO was expressed and purified essentially as described previously. Purified protein was dialysed extensively into a buffer comprising 50 mM Tris-Cl pH 8.0, 50 mM NaCl and 5 mM DTT. All measurements were made in this buffer unless otherwise stated. IKK-β and IκBα peptides were commercially synthesised by Genscript, having a purity of >98% and are of the sequence […] and […], respectively. […]

[5] = QUBES values of native mAbs; type: physicochemical; conditions: native mAb
Excerpt: First, the combined excitation and emission spectrum is monitored for each mAb giving a high information content fluorescence data set (FIG. 13A). […] A simpler exponential function is fitted, CSM=CSM0+Ae^RΔλ^Ex Eq 1.
Where CSM0 is the CSM value independent of the excitation wavelength, λEx, determined by the amplitude, A, of an exponential with a curvature determined by R. Fitting with this function instead of a Gaussian or other probability distribution dramatically improves the speed of data processing due to the lower dimensionality of the model but still retains the key aspects of the previous model, namely quantification of the magnitude of the fluorescence edge-shift. The plot of the resulting parameters yields a single three-dimensional data point (FIG. 13B, inset; the QUBES value), which is a direct quantification of the extremely complex spectral fingerprint shown in FIG. 13A.
All fluorescence measurements were performed using a Perkin Elmer LS50B Luminescence Spectrometer (Perkin Elmer, Waltham, Mass., USA) connected to a circulating water bath for temperature regulation (±1° C.). […] Tryptophan emission was monitored from 325 to 500 nm. […] The centre of spectral mass (CSM) was calculated using the following equation: […]
Where fi is the measured fluorescence intensity and Δem is the emission wavelength. […]

Substance	random coil content [1]	α-helical content [1]	ΔV for W6 (Trp) emission [2]	ΔλEm^max ([3]; 10° C., 1 bar, λex=295 nm)	increase in W6 CSM with increasing pressure ([3]; λex=292 nm)	increase in CSM from 1 to 2000 bar ([3]; λex=310 nm)	R (fit to Eq 1), change in CSM per nm of λex ([4]; absolute value)	A (REES magnitude, fit to Eq 2) ([4]; relative to NEMO alone, native, denatured (6M guanidine), crowded (Sbi 20 mg/ml))	R (fit to Eq 1), relative ([4]; relative to NEMO alone, native, denatured, crowded)	R0 ([4]; native, denatured, crowded)	R0 ([4]; native, denatured, crowded, listed as NEMO)	R0 ([4]; native, denatured, crowded, listed as native NEMO)	increase in CSM (red shift) ([4]; λex 292-310 nm)	increase in ΔλEm^max ([4]; λex 292-310 nm)	QUBES value (A, R), predicted rigidity/flexibility [5]
NEMOnative: Full length human NF-κB essential modulator; W6 is its single intrinsic Trp residue	~40%	~50%	0.81 cm3 mol^−1 and ~1.6±0.4 cm3 mol^−1	348 nm	3.0 nm	8.9 nm	0.96	1 ± 0.1	1 ± 0.13	363.2 ± 0.19 nm	363.2±0.19 nm	363.2±0.19 nm	17.7 nm	15 nm	
Nivolumab: human therapeutic mAb															high A and small R value
Pertuzumab: humanised therapeutic mAb															small A and high R value

Reference: patent US10900903B2, “Protein structure analysis based on red-edge excitation shift (REES) spectroscopy” (UNIVERSITY OF BATH, priority 2016, dated 2021)
